In patent US10052364B2, “Osteocalcin as a treatment for cognitive disorders” (THE TRUSTEES OF COLUMBIA UNIVERSITY IN THE CITY OF NEW YORK, priority 2013, dated 2018):

Experiments:
aged WT mice = experiment: ICV infusion in aged WT mice, Novel Object Recognition test; assay type: in vivo, mouse; settings: ICV 10 ng/hr for one month, 16 month old WT mice
Protocol: FIG. 9. Osteocalcin improves hippocampal function in aged wild-type (WT) mice. Constant and novel object investigation in the Novel Object Recognition test in 17 month old mice treated for 1 month with vehicle or 10 ng/hr recombinant uncarboxylated osteocalcin.
ICV pumps delivering (10 ng/hr) recombinant uncarboxylated full-length mouse osteocalcin were implanted in 16 month old WT mice. After an infusion period of one month, the mice were subjected to a modified version of the Novel Object Recognition test, to assay memory and hippocampal function. Briefly, mice were given five 5 minute exposures, with 3 minute resting intervals between exposures, to a novel arena containing two objects. During exposures 1-4, mice were habituated to these two objects, which elicited equal amounts of exploration. In the fifth exposure, one of the objects was replaced with a novel object.

[1] = test system: Osteocalcin-/- mice born from Osteocalcin-/- mothers; experiment: Osteocalcin injections in pregnant Osteocalcin-/- mothers (E0.5-E18.5): offspring behavior and brain histology; assay type: in vivo, mouse
Protocol: FIG. 7. Maternal osteocalcin determines spatial learning and memory in adult offspring. (A-F) DLT (A), EPMT (B), OFT (C), FST (D), TST (E), and MWMT (F) performed in 3-month-old Ocn^−/− mice born from Ocn^−/− mothers injected once a day with vehicle or osteocalcin (240 ng/day) during pregnancy compared to WT mice. (G) Surface of the lateral ventricle over brain area (%) of E18.5 hippocampi coronal sections of WT embryos originating from WT mothers and Ocn^−/− embryos originating from osteocalcin-injected Ocn^−/− mothers. (H) Number of apoptotic cells (stained by TUNEL assay) of E18.5 hippocampi coronal sections of WT embryos originating from WT mothers and Ocn^−/− embryos originating from Ocn^−/− mothers injected with osteocalcin (240 ng/day). (I) Cresyl violet, NeuN immunofluorescence, and dentate gyms area (% versus WT) of WT and Ocn^−/− embryos originating from osteocalcin-injected Ocn^−/− mothers. Scale bars=0.5 mm.
Osteocalcin^−/−, Gprc6a^−/−, Osteocalcin-mCherry, and Osteocalcin floxed mice have been previously described (Ducy et al., 1996, Nature 382:448-452; Oury et al., 2011, Cell 144:796-809). Mouse genotypes were determined by PCR. For all experiments, controls were littermate female WT, Cre-expressing, or flox/flox. All mice were maintained on a pure 129-Sv genetic background except for the inducible deletion Osteocalcin model (mix background: 25% C57/BL6 and 75% 129sv). For inducible gene deletion mice, tamoxifen was prepared in corn oil and injected intraperitoneally (IP) (1 mg/20 g of body weight) over one week. For osteocalcin delivery to pregnant mice, IP injections (240 ng/day) were performed as soon as a plug was present daily until delivery (E0.5-E18.5). For osteocalcin or leptin infusion in adult Osteocalcin^−/− or ob/ob mice, pumps (Alzet micro-osmotic pump, Model 1002) delivering osteocalcin (300 ng/hr), leptin (50 ng/hr), or vehicle were surgically installed subcutaneously in the backs of 3-month old mice. For the postnatal rescue of cognitive functions in Osteocalcin^−/− mice, osteocalcin (10 ng/hour) or vehicle were delivered intrasubventricularly (icy) as previously described (Ducy et al., 2000, Cell 100:197-207). Leptin and osteocalcin content in sera and tissues were determined by ELISA.
Cresyl violet staining to visualize brain morphology was carried out by incubating 20 μm cryosections defatted with 1:1 chloroform:ethanol in cresyl violet acetate (1 g/L) overnight. The stain was differentiated using ethanol and xylene and mounted using DPX mounting medium for histology (Sigma).
To assess apoptosis in WT and Osteocalcin^−/− brains, 20 μm cryostat sections were processed using the APOPTAG® Fluorescein Direct In Situ Apoptosis Detection Kit (Millipore) according to manufacturer's protocol. Images were obtained using Leica DM 4000B, and Image J was used to quantify cell number and intensity of staining.
For western blotting, frozen hippocampi from E18.5 embryos were lysed and homogenized in 250 μl tissue lysis buffer (25 mM Tris HCl 7.5; 100 mM NaF; 10 mM Na4P2O7; 10 mmM EDTA; 1% NP 40). Samples were pooled together in threes by genotype to reduce variability. Proteins were transferred to nitrocellulose membranes and blocked with TBST-5% milk prior to overnight incubation with primary antibody in TBST-5% BSA. HRP-coupled secondary antibodies and ECL were used to visualize the signal.
To further evaluate the importance of maternal osteocalcin for the acquisition of spatial learning and memory in adult offspring, pregnant Osteocalcin^−/− mothers from E0.5 to E18.5 were treated with injections, once a day, of osteocalcin (240 ng/day). Osteocalcin was never injected in these females or their pups after delivery. […] Likewise, the number of apoptotic cells was reduced and the number of NeuN positive cells was increased compared to Osteocalcin^−/− embryos originating from Osteocalcin^−/− mothers that were not injected (FIG. 7I-J).

[2] = 240 ng/day once a day to pregnant Osteocalcin-/- mothers, E0.5 to E18.5

B1: uncarboxylated osteocalcin: Recombinant osteocalcin bacterially produced, cleaved from the GST subunit; completely undercarboxylated at all three sites (protein, listed as Homo sapiens)
chain: MRALTLLALLALAALCIAGQAGAKPSGAESSKGAAFVSKQEGSEVVKRPRRYLYQWLGAPVPYPDPLEPRREVCELNPDCDELADHIGFQEAYRRFYGPV
modifications: uncarboxylated
notes: Recombinant osteocalcin bacterially produced, cleaved from the GST subunit; completely undercarboxylated at all three sites
discrimination between novel and constant objects (aged WT mice): able to discriminate between the novel and constant objects
anxiety or depression phenotypes of adult offspring [1, 2]: did not have any beneficial effect
deficit in learning and memory of adult offspring [1, 2]: rescued over two third of their deficit
cerebral ventricle enlargement in brains of E18.5 Osteocalcin-/- embryos (cresyl violet) ([1]; injection of the pregnant Osteocalcin-/- mothers, 240 ng/day): rescue of the cerebral ventricle enlargement
thickness defect in the CA3 and CA4 regions of the hippocampus in adult Osteocalcin-/- offspring ([1]; mothers injected during pregnancy): rescue of the thickness defect
number of NeuN positive cells ([1]; versus embryos from Osteocalcin-/- mothers not injected): increased
number of apoptotic cells in E18.5 embryo hippocampus ([1]; versus embryos from Osteocalcin-/- mothers not injected, listed as Uncarboxylated osteocalcin): prevent this neuronal apoptosis
number of apoptotic cells in E18.5 embryo hippocampus ([1]; versus embryos from Osteocalcin-/- mothers not injected, listed as osteocalcin): reduced
Caspase-3 cleaved protein level in hippocampus of E18.5 embryos (Western blot) ([1]; versus embryos from mothers not injected): decrease
